The results in this text go back to US20120251581A1.

This assay concerns the target recombinant CypA (UniProt P62937). The experiment in a line: cell-based or functional assay.

recombinant CypA, sequence (P62937 whole entry): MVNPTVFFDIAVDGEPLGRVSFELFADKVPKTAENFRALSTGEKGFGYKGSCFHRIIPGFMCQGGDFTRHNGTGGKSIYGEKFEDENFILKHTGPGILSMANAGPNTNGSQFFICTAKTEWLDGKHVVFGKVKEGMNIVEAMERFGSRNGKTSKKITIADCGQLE

With Cyclosporine A, 1 (peptide), the CypA PPIase IC50 is 9.7 nM.
For DEBIO-025, 2 (peptide) the value was 0.8 nM.
